Assay results as given in doi:10.1101/2021.04.12.439405 (bioRxiv, 2021).

Target: T1, MukB^K1114E (E. coli, UniProt P22523 1-1486, K1114E)
T1 sequence (looked up): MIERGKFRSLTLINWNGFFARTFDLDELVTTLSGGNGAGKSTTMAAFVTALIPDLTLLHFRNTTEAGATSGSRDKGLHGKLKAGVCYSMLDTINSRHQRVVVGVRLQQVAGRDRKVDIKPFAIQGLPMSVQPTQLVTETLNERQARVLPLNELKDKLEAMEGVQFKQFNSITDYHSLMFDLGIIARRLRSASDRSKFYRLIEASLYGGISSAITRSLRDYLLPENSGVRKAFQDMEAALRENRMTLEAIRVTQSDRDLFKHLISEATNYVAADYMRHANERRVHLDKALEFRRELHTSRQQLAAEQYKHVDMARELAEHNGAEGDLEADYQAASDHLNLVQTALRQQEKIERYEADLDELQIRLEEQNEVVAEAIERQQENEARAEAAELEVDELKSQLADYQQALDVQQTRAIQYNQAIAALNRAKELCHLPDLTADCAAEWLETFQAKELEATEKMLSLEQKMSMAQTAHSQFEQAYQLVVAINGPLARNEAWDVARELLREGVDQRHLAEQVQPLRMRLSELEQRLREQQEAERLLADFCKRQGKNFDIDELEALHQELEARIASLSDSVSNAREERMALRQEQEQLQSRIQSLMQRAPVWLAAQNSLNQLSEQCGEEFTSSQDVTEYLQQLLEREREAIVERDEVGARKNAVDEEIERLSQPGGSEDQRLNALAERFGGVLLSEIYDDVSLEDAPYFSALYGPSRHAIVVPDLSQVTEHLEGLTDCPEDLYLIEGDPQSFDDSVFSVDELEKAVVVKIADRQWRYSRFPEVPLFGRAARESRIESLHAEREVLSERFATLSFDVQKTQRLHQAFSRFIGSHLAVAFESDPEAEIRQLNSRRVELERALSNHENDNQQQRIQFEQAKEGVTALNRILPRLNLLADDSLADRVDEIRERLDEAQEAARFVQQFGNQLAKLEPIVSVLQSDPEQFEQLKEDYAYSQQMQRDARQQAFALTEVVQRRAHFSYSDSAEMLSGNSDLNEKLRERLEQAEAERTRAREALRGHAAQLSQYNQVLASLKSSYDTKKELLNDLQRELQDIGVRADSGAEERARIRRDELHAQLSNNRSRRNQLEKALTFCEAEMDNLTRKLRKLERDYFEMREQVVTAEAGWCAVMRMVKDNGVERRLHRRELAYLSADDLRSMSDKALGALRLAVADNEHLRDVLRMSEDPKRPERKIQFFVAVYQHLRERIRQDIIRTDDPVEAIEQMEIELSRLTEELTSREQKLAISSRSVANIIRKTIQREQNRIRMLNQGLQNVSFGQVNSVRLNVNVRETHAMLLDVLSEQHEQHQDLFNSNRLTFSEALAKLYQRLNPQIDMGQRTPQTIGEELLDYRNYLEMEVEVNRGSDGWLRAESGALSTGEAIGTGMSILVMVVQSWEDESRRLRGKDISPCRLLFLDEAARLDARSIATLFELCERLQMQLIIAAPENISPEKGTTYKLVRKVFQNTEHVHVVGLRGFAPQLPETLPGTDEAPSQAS
Experiment: native gel or EMSA

- binding result: binds
B1: His-MukF (natural protein, E. coli, UniProt P60293 1-440, looked up)
chain: MSEFSQTVPELVAWARKNDFSISLPVDRLSFLLAVATLNGERLDGEMSEGELVDAFRHVSDAFEQTSETIGVRANNAINDMVRQRLLNRFTSEQAEGNAIYRLTPLGIGITDYYIRQREFSTLRLSMQLSIVAGELKRAADAAEEGGDEFHWHRNVYAPLKYSVAEIFDSIDLTQRLMDEQQQQVKDDIAQLLNKDWRAAISSCELLLSETSGTLRELQDTLEAAGDKLQANLLRIQDATMTHDDLHFVDRLVFDLQSKLDRIISWGQQSIDLWIGYDRHVHKFIRTAIDMDKNRVFAQRLRQSVQTYFDEPWALTYANADRLLDMRDEEMALRDEEVTGELPEDLEYEEFNEIREQLAAIIEEQLAVYKTRQVPLDLGLVVREYLSQYPRARHFDVARIVIDQAVRLGVAQADFTGLPAKWQPINDYGAKVQAHVIDKY
